In patent US10100317B2, “Compositions of matter that reduce pain, shock, and inflammation by blocking linoleic acid metabolites and uses thereof” (Board of Regents of the University of Texas System, priority 2012, dated 2018):
Entries after “also recorded” stand apart in the source; their conditions may differ.

Assays:
TRPV1 in the spinal cord = settings: completely reversible by a TRPV1 antagonist; cited from earlier work
[1] = tested on: LA-evoked nofifensive behaviors; experiment: LA-evoked nocifensive behaviors after capsazepine pretreatment (FIG. 3B); type: in vivo; settings: pretreatment before linoleic acid
normal rats = experiment: Spontaneous nocifensive behaviors after linoleic acid injection in normal rats (FIG. 3A); type: in vivo, rat
[2] = tested on: TRPV1 knock-out (KO) mice; experiment: LA-triggered nocifensive behaviors in TRPV1 knock-out versus wild type mice (FIG. 3C); type: in vivo; settings: TRPV1 KO mice compared to wild type mice
[3] = ELASA (ELISA-like) plate screening of aptamers against 9-HODE; type: binding; settings: for Trial 1 Abs 405 nm: ELASA trial 1; for Affinity ranking in ELASA plate screening: 9-HODE target, three trials, done in triplicate; for Trial 3 Abs 405 nm: ELASA trial 3
Protocol: (§1) To evaluate, screen, and rank aptamers based on affinity against their cognate HODE isomers, two different approaches are used. The first involved the use of Corning Costar Universal Bind™ microplates (No. 2503) for ultraviolet (UV) immobilization of 200 ng/well of unlabeled HODES to the plate's surface (Bruno et al., 2008 and 2009) using 0.2 Joules/cm^2 in a UV crosslinker oven for 15 minutes. The second involved streptavidin (SAv)-coated microwell strips (Nunc, Inc. Catalogue #436020) in which 400 ng of the biotinylated-13-HODE are immobilized for 30 minutes at RT with gentle mixing in 200 μl of PBS per well.
(§2) Plates or wells are decanted and washed three times in 250 μl of 1×BB. Each of the different 5′-biotinylated aptamers raised against the target is dissolved in 1×BB at 1.00 nmole per 100 microliters and applied to their corresponding plate wells for 1 hour at RT with gentle mixing on an orbital shaker. The plate is decanted and washed three times in 250 μl of 1×BB for at least 5 minutes per wash with gentle mixing. One hundred μl of a 1:2,000 dilution of SAv-peroxidase from a 5 mg/ml stock solution in 1×BB is added per well for 30 minutes at RT with gentle mixing. The plate is decanted and washed three times with 250 μl of 1×BB per well as before.
(§3) One hundred μl of ABTS (2,2′-azino-bis(3-ethylbenzthiazoline-6-sulphonic acid) substrate with stabilized hydrogen peroxide (Kirkegaard Perry Laboratories, Inc., Gaithersburg, Md.) is added per well for 10 minute at RT. Various deletion control wells without biotinylated aptamers or SAv-peroxidase are set up and evaluated to establish background levels as well. Finally absorbance is quantified using a microplate reader with 405 nm optical filter.
(§4) These aptamers were: H9-3/19F and B13-9R for the 9-HODE and biotinylated 13-HODE targets respectively and they proceeded into animal testing.

[4] = ELASA (ELISA-like) plate screening of aptamers against 13-HODE / biotinylated 13-HODE; type: binding; settings: for Trial 1 Abs 405 nm: ELASA trial 1; for Trial 1 Abs 405 nm / Trial 3 Abs 405 nm / Trial 2 Abs 405 nm: 13-HODE / biotinylated 13-HODE aptamers, absorbance 10-15 minutes after final addition of ABTS substrate; for Trial 3 Abs 405 nm: ELASA trial 3; for Trial 2 Abs 405 nm: ELASA trial 2; for Affinity ranking in ELASA plate screening: biotinylated 13-HODE target, three trials, done in triplicate
Protocol: as §1, §2, §3, §4

[5] = SPR analysis (Biacore X100) with immobilized 13(S)-HODE-Biotin; type: binding; settings: CM5 chip, 1×HBS-EP+ buffer, aptamer 20-80 μM, contact 90 s, dissociation 600 s; read-out: dissociation constant, KD
Protocol: SPR Analysis of H9-3/19F Aptamer and B13-9R Aptamer with 13(S)-HODE-Biotin
13(S)-HODE-Biotin was immobilized on a CM5 sensor chip utilizing biotin-streptavidin chemistry. Various concentrations of H9-3/19F aptamer (SEQ ID. NO. 84) were flowed through the Biacore X100 with 1×HBS-EP+ running buffer at a flow rate of 30 μl/min and allowed a contact time with the surface-bound ligand of 90 seconds, followed by a dissociation time set at 600 seconds. The following concentrations of aptamer were used: 20 μM, 40 μM, 60 μM and 80 μM.
13(S)-HODE-Biotin was immobilized on a CM5 sensor chip utilizing biotin-streptavidin chemistry. Various concentrations of B13-9R aptamer (SEQ ID. NO. 67) were flowed through the Biacore X100 with 1×HBS-EP+ running buffer at a flow rate of 30 μl/min and allowed a contact time with the surface-bound ligand of 90 seconds, followed by a dissociation time set at 600 seconds. The following concentrations of aptamer were used: 20 μM, 40 μM, 60 μM and 80 μM.

[6] = tested on: cultured capsaicin-sensitive neurons; experiment: Patch clamp electrophysiology of cultured capsaicin-sensitive neurons; type: cell-based
[7] = tested on: rat hindpaws inflamed with complete Freund's adjuvant (CFA); experiment: Pain responses in rat hindpaws inflamed with complete Freund's adjuvant (CFA); type: in vivo; settings: local (hindpaw) injection, FIG. 2
[8] = 9-HODE aptamers, absorbance 10-15 minutes after final addition of ABTS substrate

9-hydroxyoctadecadienoic acid [Aptamer 9-HODE]
tactile allodynia (TRPV1 in the spinal cord): results in tactile allodynia

COc1cc(CNC(=O)CCCC/C=C/C(C)C)ccc1O [capsaicin]
tactile allodynia (TRPV1 in the spinal cord): results in tactile allodynia

Oc1cc2c(cc1O)CN(C(=S)NCCc1ccc(Cl)cc1)CCC2 [capsasepine]
LA-evoked nocifensive behaviors [1]: significantly reduced

CCCCC/C=C\C/C=C\CCCCCCCC(=O)O [linoleic acid, cis, cis-9,12-octadecadienoic acid]
spontaneous nocifensive behaviors (normal rats): does not produce a significant increase | LA-triggered nocifensive behaviors [2]: significantly reduced

B1: H9-3/19R: DNA aptamer clone, 9-HODE target (nucleic acid)
DNA: ATCCGTCACACCTGCTCTGCATGGCCATCCAGATTAGTCCTGCAGCACATTCGGTGGTGTTGGCTCCCGTAT
modifications: DNA, backbone not given here
notes: DNA aptamer clone, 9-HODE target
Trial 1 Abs 405 nm [3, 8]: 1.571

B2: B13-8F: DNA aptamer clone, biotinylated 13-HODE target (nucleic acid)
DNA: ATACGGGAGCCAACACCAGCGAAGCCAAAACTGGTCGGGCCGACGGGATTCGTTAGAGCAGGTGTGACGGAT
modifications: DNA, backbone not given here
notes: DNA aptamer clone, biotinylated 13-HODE target
Trial 1 Abs 405 nm [4]: 1.490

B3: B13-12R: DNA aptamer clone, biotinylated 13-HODE target (nucleic acid)
DNA: ATCCGTCACACCTGCTCTGCCATTGAATCTCATATGGTGCTCGAGTAGCTGGTGTGGTGTTGGCTCCCGTAT
modifications: DNA, backbone not given here
notes: as for B2
Trial 3 Abs 405 nm [4]: 1.310

B4: 5′-ATACGGGAGCCAACACCACCGAATGTGCTGCAGGACTAATCTGGATGGCCATGCAGAGCAGGTGTGACGGAT-3′ (nucleic acid)
DNA: ATACGGGAGCCAACACCACCGAATGTGCTGCAGGACTAATCTGGATGGCCATGCAGAGCAGGTGTGACGGAT
modifications: DNA, backbone not given here
notes: DNA aptamer for the OLAM 9-HODE
Affinity ranking in ELASA plate screening [3]: highest affinity; also recorded: top two to three strongest absorbance signals | Affinity ranking in ELASA plate screening ([3]; listed as SEQ ID NO. 84): highest binding affinity | Trial 1 Abs 405 nm [3, 8]: 2.081 | Trial 2 Abs 405 nm ([3]; ELASA trial 2, 9-HODE aptamers, absorbance 10-15 minutes after final addition of ABTS substrate): 1.648 | Trial 3 Abs 405 nm [3, 8]: 1.640 | Kd [5]: 0.129 nM | block of capsaicin response (selectivity) ([6]; capsaicin itself / TRPV1 directly): does not block capsaicin itself | activation of cultured capsaicin-sensitive neurons ([6]; pre-treatment with aptamer, 9-HODE response, preliminary data, FIG. 1): blocks activation | pain responses to mechanical stimuli [7]: significant reduction in pain responses | pain responses to thermal stimuli [7]: significant reduction in pain responses

B5: H13-12F: DNA aptamer clone, 13-HODE target (nucleic acid)
DNA: ATACGGGAGCCAACACCATGTTACATCAACTGCATGAAGACGAGGAATGTGATGAGAGCAGGTGTGACGGAT
modifications: DNA, backbone not given here
notes: DNA aptamer clone, 13-HODE target
Trial 1 Abs 405 nm [4]: 1.442

B6: 5′-ATCCGTCACACCTGCTCTGGGGGGGGAAGCTCGTGGTATAAGGGGCGTTGAGGTGGTGTTGGCTCCCGTAT-3′ (nucleic acid)
DNA: ATCCGTCACACCTGCTCTGGGGGGGGAAGCTCGTGGTATAAGGGGCGTTGAGGTGGTGTTGGCTCCCGTAT
modifications: DNA, backbone not given here
notes: DNA aptamer for the OLAM 13-HODE
Trial 1 Abs 405 nm [4]: 1.549 | Trial 2 Abs 405 nm [4]: 1.885 | Trial 3 Abs 405 nm [4]: 1.964 | Affinity ranking in ELASA plate screening [4]: highest affinity; also recorded: top two to three strongest absorbance signals | Affinity ranking in ELASA plate screening ([4]; listed as SEQ ID NO. 67): highest binding affinity | Kd [5]: 2.56 nM

B7: B13-1a/4/6/15/17/19/20R: DNA aptamer clone, biotinylated 13-HODE target (nucleic acid)
DNA: ATCCGTCACACCTGCTCTCGAGTATAAGGGGGAGTTGCATAACGCTAAACTTTGTGGTGTTGGCTCCCGTAT
modifications: DNA, backbone not given here
notes: as for B2
Trial 2 Abs 405 nm [4]: 1.595

B8: B13-10bR: DNA aptamer clone, biotinylated 13-HODE target (nucleic acid)
DNA: ATCCGTCACACCTGCTCTGCGGACAGCGGTTGCGCATATATCGTGGCAGTGGGCTGGTGTTGGCTCCCGTAT
modifications: DNA, backbone not given here
notes: as for B2
Trial 2 Abs 405 nm [4]: 1.214

B9: H13-1/2-4/6-8/14-18/20F: DNA aptamer clone, 13-HODE target (nucleic acid)
DNA: ATACGGGAGCCAACACCACAAAGTTTAGCGTTATGCAACTCCCCCTTATACTCGAGAGCAGGTGTGACGGAT
modifications: DNA, backbone not given here
notes: as for B5
Trial 2 Abs 405 nm [4]: 1.199 | Trial 3 Abs 405 nm [4]: 1.387

B10: H9-2/4-6/8a/9b/14/20F: DNA aptamer clone, 9-HODE target (nucleic acid)
DNA: ATACGGGAGCCAACACCACAAAGTTTAGCGTTATGCAACTCCCCCTTATACTCGAGAGCAGGTGTGACGGAT
modifications: DNA, backbone not given here
notes: as for B1
Trial 3 Abs 405 nm [3, 8]: 1.249
